We go through one molecule from patent publication US20050054047A1 (Amgen, published 2005).

The target in one experiment is T1, DR3 (UniProt Q93038 25-417, limits assumed).
T1 construct: whole, on cells; also called Apo3; WSL-1
T1 sequence (looked up): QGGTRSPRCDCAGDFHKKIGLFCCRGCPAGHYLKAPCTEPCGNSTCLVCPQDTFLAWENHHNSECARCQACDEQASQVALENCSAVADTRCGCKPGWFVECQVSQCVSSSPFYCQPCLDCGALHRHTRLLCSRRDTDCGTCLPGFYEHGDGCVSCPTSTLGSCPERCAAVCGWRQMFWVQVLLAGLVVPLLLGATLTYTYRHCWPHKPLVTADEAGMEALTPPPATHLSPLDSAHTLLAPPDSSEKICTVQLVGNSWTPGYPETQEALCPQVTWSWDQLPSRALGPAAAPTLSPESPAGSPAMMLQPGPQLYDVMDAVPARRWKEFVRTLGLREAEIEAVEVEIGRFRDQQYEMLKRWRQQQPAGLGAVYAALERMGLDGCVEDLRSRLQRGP
Briefly: slide binding on transfected COS cells, I-125 anti-leucine-zipper antibody, autoradiography. Here is the method:
(§1) Slides of COS cells were transfected with expression vectors containing TWEAKR, DR3, or vector without insert (control). After two days the cells were incubated with concentrated supernatants from CV-1 cells transfected with a vector encoding the leucine zipper TWEAK extracellular domain fusion protein. One hour later the cells were washed and probed with an I-125 labeled antibody against the leucine-zipper domain. The slides were washed, fixed, and autoradiography was performed using x-ray film. The TWEAKR transfected cells bound significant amounts of TWEAK. […] This experiment confirmed that the TWEAKR polypeptide identified in part A above, rather than DR3, is the major receptor for TWEAK. After discovery of the functional TWEAK receptor, other investigators also reported that DR3 is not the major receptor for TWEAK (Kaptein et al., FEBS Lett., 485(2-3): 135, 2000. The TWEAK-TWEAKR binding interaction was further characterized by Scatchard analysis.

The next experiment deals with T2, human TWEAK receptor (human, UniProt Q9NP84 28-129).
T2 construct: Expressed on COS cells from an expression vector; The entry includes the signal peptide
T2 sequence: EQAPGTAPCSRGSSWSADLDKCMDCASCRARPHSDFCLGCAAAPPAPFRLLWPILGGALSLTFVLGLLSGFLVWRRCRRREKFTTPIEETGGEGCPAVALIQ
The experiment is described as above. As to the method:
as §1

B1: leucine zipper TWEAK extracellular domain fusion protein (ligand)
chain: not shown
notes: Used as concentrated supernatant from transfected CV-1 cells; also called LZ-TWEAK; pDC409-LZ-TWEAK product
With B1, the binding result with DR3 is on record as “no binding”; with human TWEAK receptor, “binds”.
